Entries after “also recorded” stand apart in the source; their conditions may differ.
What was measured:
MSCs = experiment: Messenger RNA decay assay in MSCs after actinomycin D; format: cell-based, mouse
Procedure: FIGS. 8A and 8B. IL-17A prevented the decay of iNOS mRNA, (FIG. 8A) the iNOS mRNA stability was measured at different time points after actinomycin D treatment in IFNγ+TNFα and IFNγ+TNFα+IL-17A treatment groups. (FIG. 8B) iNOS expression enhancing effect of IL-17A at different times after IFNγ and TNFα treatment.
FIGS. 13A and 13B. Wild-type (FIG. 13A) or […] (FIG. 13B) were treated with IFNγ and TNFα, with or without IL-17A (all cytokines supplemented at 10 ng/ml), for 6 hr, and then actinomycin D (5 μg/ml) was added to stop transcription. At the indicated time points, mRNA levels were assayed by quantitative RT-PCR, taking the expression level at the time of actinomycin.D addition as 100%. mRNA expression values are means±SD of three wells from a representative of three independent experiments.
Messenger RNA decay assays-Messenger RNA decay assays were performed essentially. MSCs were incubated with cytokine combinations for 6 hr. Actinomycin D (Act.D) was added into the medium at a final concentration of 5 μg/ml to stop transcription. At various time points after addition of Act.D, cells were harvested for extraction of total RNA.
Levels of iNOS, CXCL1, CCL2, CXCL10 and IL-6 mRNAs were measured at each time point by quantitative RT-PCR and normalized to levels of β-actin mRNA. Percentages of mRNA remaining for each time point were plotted versus time after Act.D addition. First order decay constants, k, were determined by nonlinear regression. The associated mRNA half-lives, t1/2, were calculated with the equation t1/2=ln2/k.

CD4+ T cell blasts = experiment: T cell blast proliferation in co-culture with MSCs (3H-thymidine incorporation); format: cell-based, mouse
Procedure: FIG. 1. is a graph showing that immunosuppression by MSCs is induced by proinflammatory cytokines. Cloned MSCs were supplemented with the indicated combinations of recombinant cytokines (20 ng/ml each) for 8 hours, then co-cultured with CD4+ T cell blasts at a 1:20 ratio (MSC:T cells), and proliferation assessed after an additional 8 hours. Values represent means±SD of five wells from a representative of three experiments with different clones. * p<0.001.
FIGS. 9A, 9B, 9C, 9D, 9E, 9F and 9G. (FIG. 9A). Cloned MSCs were first treated with the indicated combinations of recombinant cytokines IFNγ, TNFα, IL-17A (2 ng/ml each) for 12 hr, then cocultured with CD4^+ T cell blasts at a 1:20 ratio (MSC:T cells), and proliferation was assessed by 3H-thymidine incorporation after an additional 12 hr. (FIG. 9B). The mRNA expression of IL-17 receptor family members in MSCs or Raw 264.7 (Macrophages) were examined by RT-PCR. NC: No RT. (FIG. 9C). Surface expression of IL-17RA was detected by immunofluoresence or flow cytometry in cloned MSCs. (FIGS. 9D and 9E). MSCs were first treated with IFNγ and TNFα with or without IL-17A (10 ng/ml), IFNγ and TNFα were supplemented at different cytokine concentrations, for 12 hr, and then cocultured with CD4^+ T cell blasts (FIG. 9D) or T cell hybridoma A1.1 cells (FIG. 9E) at a ratio of 1:20 for 12 hr. T cell proliferation was measured by 3H-Tdr incorporation. (FIG. 9F). MSCs were first treated with IFNγ and TNFα (2 ng/ml) with graded concentrations of IL-17A, for 12 hr, and then cocultured with T cell hybridoma A1.1 cells at a ratio of 1:10 for 12 hr. T cell proliferation was measured by 3H-thymidine incorporation. (FIG. 9G). MSCs were cocultured with fresh C57BL/6 splenocytes plus anti-CD3, anti-CD28, and antibodies against IL-17A, at a 1:20 or 1:40 ratio (MSCs:splenocytes), for 48 hr, and then cell proliferation was assessed by 3H-thymidine incorporation. Proliferation values represent means±SEM of three wells from a representative of three experiments.
T cell blasts were generated from CD4^+ T cells purified by negative selection with […] T cell subset isolation kits (R&D Systems). Cells (1×10^6 cells/ml) were activated by plastic-bound anti-CD3 and soluble anti-CD 28 for 48 hours, then cultured with IL-2 (200 U/ml) alone for 48 hours. All T cell cultures were maintained in RPMI-1640 medium supplemented with 10% heat-inactivated FBS, 2 mM glutamine, 100 U/ml penicillin, 100 μ·g/ml streptomycin, and […] (complete medium).
Since most reported studies of immunosuppression by MSCs are based on their effects on T cell proliferation and cytokine production, the effect of MSCs was first examined on the IL-2-driven proliferation of T cell blasts. Fresh CD4^+ T cell blasts were generated from splenocytes by activation with anti-CD3 followed by expansion with IL-2 for several days (Devadas, et al. (2006) Immunity 25:237-247; Radvanyi, et al. (1996) Cell Immunol. 170:260-273). T cell blasts were added at a 1:20 ratio (MSC:T cells) along with IL-2 (200 U/ml). Cell proliferation was assessed by ^3H-Tdr incorporation after 8 hours. […] MSCs also had no effect on the proliferation of T hybridoma A1.1 cells. These T cells blasts and T hybridoma cells, however, produce no cytokines unless reactivated through the TCR (Fotedar, et al. (1985) J. Immunol. 135(5):3028-33). Thus, in the absence of T cell cytokines, MSCs were unable to suppress T cell proliferation.
The effect of IFNγ was then tested directly by adding isolated recombinant IFNγ (20 ng/ml) instead of activated splenocyte supernatant to the mixed co-cultures of MSC+ T cell blasts or MSC+A1.1 cells. […] Therefore, induction of the immunosuppressive function of MSCs by anti-CD3-activated splenocyte supernatant may be due to IFNγ acting in concert with either TNFα; IL-1α; or IL-1β on the MSCs. […]

B1: IL-17A: recombinant mouse interleukin 17A (protein)
chain: AAIIPQSSACPNTEAKDFLQNVKVNLKVFNSLGAKVSSRRPSDYLNRSTSPWTLHRNEDPDRYPSVIWEAQCRHQRCVNAEGKLDHHMNSVLIQQEILVLKREPESCPFTFRVEKMLVGVGCTCVASIVRQAA
half-lives of iNOS and IL-6 mRNAs in AUF1 knockout MSCs (MSCs; added to IFNγ+TNFα): no effect
stabilization of CXCL1 mRNA in AUF1 knockout MSCs (MSCs; added to IFNγ+TNFα): at least twofold
stabilization of iNOS, IL-6, and CXCL1 mRNAs in wild-type MSCs (MSCs; added to IFNγ+TNFα): twofold stabilization
iNOS mRNA stability (MSCs; supplement to IFNγ+TNFα, within the time points tested): completely protected
T cell proliferation after MSC treatment with low-concentration cytokines (CD4+ T cell blasts; 2 ng/ml each, 12 hr, then 1:20 MSC:T cells): cannot induce immunosuppression; also recorded: markedly enhanced
IFNγ and TNFα concentrations (as low as) at which IL-17A enhances the immunosuppressive effect of MSCs (CD4+ T cell blasts; 10 ng/ml IL-17A, CD4+ T cell blasts or A1.1): 1 to 2 ng/mL
immunosuppression at higher concentrations of IFNγ and TNFα (CD4+ T cell blasts; IFNγ and TNFα 10-20 ng/ml): still improved immunosuppression

Source: patent publication US12156889B2, “Methods of administering mesenchymal stem cells activated by cytokines for enhancing immunosuppression” (Rutgers, The State University of New Jersey, priority 2012, dated 2024)
